Measured values reported in article PMC4132724.

B1: 20-mer control (GGTTAC) (ssDNA)
DNA: GGTCACGGTCACAGGTTACA
B2: 5hmU at T3 (ssDNA)
DNA: GGTCACGGTCACAGGUTACA
modifications: 5-hydroxymethyl-2'-deoxyuridine at position 16 (written U)

Target: T1, Pot1pN (Schizosaccharomyces pombe, UniProt O13988 1-185)
T1 sequence: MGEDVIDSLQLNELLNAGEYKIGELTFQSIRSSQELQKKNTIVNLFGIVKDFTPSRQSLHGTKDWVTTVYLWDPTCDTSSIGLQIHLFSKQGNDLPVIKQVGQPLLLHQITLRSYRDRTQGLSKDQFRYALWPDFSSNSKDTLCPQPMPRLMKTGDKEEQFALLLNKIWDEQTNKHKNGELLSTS
Assay: EMSA

| Binder | Kd |
| --- | --- |
| B1 | 66 ± 5 nM |
| B2 | 67 ± 5.6 nM |
